We go through one substance from PMC7570257.

The assay concerns the target PRMT1 catalytic core construct. The assay is described as follows: SEC.

A word on the stoichiometry N: it is the number of molecules, sites or subunits per partner or assembly.

“PRMT1 catalytic core construct (domain or fragment)” had a stoichiometry N of 4.
